From publication PMC5625035

Biological target: PNKP (UniProt Q96T60)
Assay: Ni-NTA co-purification of XRCC1-His complexes, immunoblot
Settings: reference: wild-type XRCC1-His; sites S518,T519,T523

Substance: XRCC1 (from UniProt P18887) XRCC1-His S518A/T519A/T523A
- binding against the reference: weaker
